These results are taken from publication PMC12738837, “Structure of Trypanosoma peroxisomal import complex unveils conformational heterogeneity” (Nature Communications, 2025).

Where “and” joins values, the source holds several entries; their conditions need not be identical. Identical values can stand only once.

B1: glycosomal malate dehydrogenase (MDH, residues 1–323) (enzyme, Trypanosoma cruzi, UniProt Q4DRD8 1-323, looked up)
chain: MVNVAVIGAAGGIGQSLSLLLLRELPFGSTLSLYDVVGAPGVAADLSHIDRAGITVKHAAGKLPPVPRDPALTELAEGVDVFVIVAGVPRKPGMTRDDLFNVNAGIVMDLVLTCASVSPNACFCIVTNPVNSTTPIAAQTLRKIGVYNKNKLLGVSLLDGLRATRFINNARHPLVVPYVPVVGGHSDVTIVPLYSQIPGPLPDESTLKEIRKRVQVAGTEVVKAKAGRGSATLSMAEAGARFTMHVVKALMGLDTPMVYAYVDTDGEHECPFLAMPVVLGKNGIERRLPIGPITTVEKEMLEEAVGVVKKNIAKGETFARSKL
notes: glycosomal malate dehydrogenase (MDH), Trypanosoma cruzi, residues 1-323, UniProt Q4DRD8; Tetramer (two dimers related by D2 symmetry) by cryo-EM; also called cargo; MDH tetramer; source: E. coli BL21 (DE3), purified (Ni-NTA, SEC)

Series [1] deals with the molecule itself. The series is described as follows: cryo-EM structure; ternary complex: purified MDH (tetramer), full-length Pex5 and Pex14NTD mixed at 1:4:12, overnight at 4 °C, separated on Superose6 10/300, vitrified at ~0.75 mg/mL; no cross-linking; MDH alone solved from the same dataset.
Series [2] has as its target T1, Pex5_(eTPR)(R625A, D629A) (Trypanosoma cruzi, UniProt Q4DPQ9 316-668, R625A | D629A).
T1 construct: source: E. coli BL21 (DE3), purified as wild type (Ni-NTA, SEC)
T1 sequence: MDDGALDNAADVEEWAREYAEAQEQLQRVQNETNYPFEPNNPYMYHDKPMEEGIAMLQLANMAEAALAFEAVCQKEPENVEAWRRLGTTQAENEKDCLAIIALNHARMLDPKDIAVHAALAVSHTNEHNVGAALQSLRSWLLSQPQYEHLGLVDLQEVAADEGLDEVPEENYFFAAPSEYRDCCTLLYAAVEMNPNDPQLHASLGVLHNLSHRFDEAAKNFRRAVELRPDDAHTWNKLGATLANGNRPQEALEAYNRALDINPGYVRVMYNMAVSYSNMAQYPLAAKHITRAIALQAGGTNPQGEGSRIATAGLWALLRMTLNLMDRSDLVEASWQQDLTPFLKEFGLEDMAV
The series is described as follows: ITC; Pex5_(eTPR) (250 μM) injected into MDH (25 μM) in the cell; 100 mM Hepes, 150 mM NaCl, 2 mM β-mercaptoethanol, pH 7.5; 25 °C. Particulars: both partners purified.

Series [3] deals with T2, Pex5_(eTPR) (residues 314–666), truncated Pex5 containing an extended TPR domain with a single Wxxx(F/Y) motif (Trypanosoma cruzi, UniProt Q4DPQ9 316-668). The description is as above. Particulars: both partners purified.
In the next series the target is T3, Pex5_(eTPR)(P490R) (Trypanosoma cruzi, UniProt Q4DPQ9 316-668, P490R).
T3 construct: source: E. coli BL21 (DE3), purified as wild type (Ni-NTA, SEC)
T3 sequence: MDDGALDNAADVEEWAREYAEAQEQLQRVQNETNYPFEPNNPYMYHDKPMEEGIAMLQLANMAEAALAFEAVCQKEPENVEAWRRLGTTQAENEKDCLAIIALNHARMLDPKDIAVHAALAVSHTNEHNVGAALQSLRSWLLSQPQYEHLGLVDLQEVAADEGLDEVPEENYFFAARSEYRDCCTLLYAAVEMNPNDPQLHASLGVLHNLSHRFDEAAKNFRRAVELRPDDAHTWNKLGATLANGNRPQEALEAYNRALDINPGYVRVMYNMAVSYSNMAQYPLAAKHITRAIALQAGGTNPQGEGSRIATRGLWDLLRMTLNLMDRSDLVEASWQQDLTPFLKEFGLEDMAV
Described as above. Particulars: both partners purified.

Series [4] addresses B1. Nature of the series: cryo-EM structure; ternary complex: purified MDH (tetramer), full-length Pex5 and Pex14NTD mixed at 1:4:12, overnight at 4 °C, separated on Superose6 10/300, vitrified at ~0.75 mg/mL; no cross-linking; MDH alone solved from the same dataset. The conditions noted are these: both partners purified.
Series [5] deals with 6-FAM labeled PTS1 peptide. Nature of the series: fluorescence polarisation.
Series [6] concerns the target T2, Pex5_(eTPR) (residues 314–666), …. The series is described as follows: ITC; Pex5_(eTPR) with the PTS1 peptide (NH2-ARSKL-COOH); who was in the cell is not stated for the peptide; 25 °C. Particulars: both partners purified.

For the molecule B1, the “stoichiometry N” value in series [1] came to 4. Besides, the results for the Kd (in series [2]; in series [3]; in the series with Pex5_(eTPR)(P490R)) were 453 ± 64 nM, 435 ± 80 nM and 1390 ± 226 nM, respectively.

B2: full length Pex5 (residues 1–666) (receptor, Trypanosoma cruzi, UniProt Q4DPQ9 1-668, looked up)
chain: MDCSTGAAIGQQFAKDAFHMHGGVGVGPTGNPEHDVLMNEMMMVQTPTGPAGEWTHQFAAYQGKQQQQHPQELAMRHQQNDALMLRQQQEMEEAFCTLCAAHPHSHAHSHAHSHQPQGLVGPAMMGPQIMPPMMFGPGSGGFMMGTPPMMPYASMKFAGDAAMAAANNTTMTQGATATSTTSVQQEQQQQQSSDNGWVEKLRDAEWAQDYSDAQVFTLEGQSEQTMEEHAKNSEFYQFMDKIRSKELLIDEETGQLVQGPGPDPDAPEDAEYLKEWAAAEGLNMPPGFFEHMMQRPQGNNEQAEGRLFDGSNDALMDDGALDNAADVEEWAREYAEAQEQLQRVQNETNYPFEPNNPYMYHDKPMEEGIAMLQLANMAEAALAFEAVCQKEPENVEAWRRLGTTQAENEKDCLAIIALNHARMLDPKDIAVHAALAVSHTNEHNVGAALQSLRSWLLSQPQYEHLGLVDLQEVAADEGLDEVPEENYFFAAPSEYRDCCTLLYAAVEMNPNDPQLHASLGVLHNLSHRFDEAAKNFRRAVELRPDDAHTWNKLGATLANGNRPQEALEAYNRALDINPGYVRVMYNMAVSYSNMAQYPLAAKHITRAIALQAGGTNPQGEGSRIATRGLWDLLRMTLNLMDRSDLVEASWQQDLTPFLKEFGLEDMAV
notes: Pex5, Trypanosoma cruzi, full length, residues 1-666, GenBank PBJ69826.1; Contains three Wxxx(F/Y) motifs; source: E. coli BL21 (DE3), purified (Ni-NTA, SEC)
Consider B2, for which, in series [4], the “stoichiometry N” value was 1 Pex5 per MDH tetramer and 2 Pex5 per MDH tetramer. In series [5], this molecule displayed a Kd of 88 nM.

B3: PTS1 peptide derived from MDH (NH2-ARSKL-COOH) (peptide)
peptide: H-ARSKL-OH
notes: short peptide encompassing PTS1 of T. cruzi glycosomal MDH, residues 319-ARSKL-323; also called MDH-derived PTS1 peptide
For B3, in series [6], the Kd was 135 ± 19 nM.
